How the values were obtained:
Assay in all cases: EMSA
[1] = test system: RsmA1 (Pseudomonas syringae pv. tomato DC3000)
[2] = test system: RsmA2 (Pseudomonas syringae pv. tomato DC3000)
[3] = test system: RsmA3 (Pseudomonas syringae pv. tomato DC3000)
[4] = test system: RsmA4 (Pseudomonas syringae pv. tomato DC3000)

Row | Substance | binding signal [1] | binding signal [2] | binding signal [3] | binding signal [4]
1 | rsmX1 | 320 nM | 40 nM | 40 nM | 640 nM
2 | rsmX5 | 320 nM | 40 nM | 40 nM | 640 nM
3 | rsmY | 320 nM | 40 nM | 40 nM | 640 nM
4 | rsmZ | 320 nM | 40 nM | 40 nM | 640 nM

From paper PMC6715622
